These results are taken from PMC4752722 (Cell, 2016).

The data set deals with the molecule itself. Description: cross-linking.

For orientation: stoichiometry N means a count of units in the complex or per binding partner.

B1: CorA double cysteine mutant V183C/A8C (natural protein, Thermotoga maritima)
chain: MEEKRLSCKKGLPPGTLVYTGKYREDFEIEVMNYSIEEFREFKTTDVESVLPFRDSSTPTWINITGIHRTDVVQRVGEFFGIHPLVLEDILNVHQRPKVEFFENYVFIVLKMFTYDKNLHELESEQVSLILTKNCVLMFQEKIGDVFDPVRERIRYNRGIIRKKRADYLLYSLIDALVDDYFCLLEKIDDEIDVLEEEVLERPEKETVQRTHQLKRNLVELRKTIWPLREVLSSLYRDVPPLIEKETVPYFRDVYDHTIQIADTVETFRDIVSGLLDVYLSSVSNKTNEVMKVLTIIATIFMPLTFIAGIYGMNFEYMPELRWKWGYPVVLAVMGVIAVIMVVYFKKKKWL
As for B1, the “stoichiometry N” value amounted to 5.
